What was measured:
[1] = target: recombinant UBE3A protein (Homo sapiens (Human)) (UniProt Q05086); assay: 3-step Simoa; capture GTX; UBE3A 125 ng/ml
[2] = target: recombinant UBE3A protein (Homo sapiens (Human)) (UniProt Q05086); assay: 2-step Simoa; capture GTX; UBE3A 31.3 ng/ml
[3] = target: recombinant UBE3A protein (Homo sapiens (Human)) (UniProt Q05086); assay: Simoa; capture GTX; SBG 100 pm; UBE3A 0.160 ng/ml
[4] = target: recombinant UBE3A protein (Homo sapiens (Human)) (UniProt Q05086); assay: Simoa; capture GTX; 3E5 0.8 ug/ml; UBE3A 0.00640 ng/ml
[5] = target: recombinant UBE3A protein (Homo sapiens (Human)) (UniProt Q05086); assay: Simoa; capture GTX; SBG 75 pm; UBE3A 0.800 ng/ml
[6] = target: recombinant UBE3A protein (Homo sapiens (Human)) (UniProt Q05086); assay: Simoa; capture GTX + helper beads; 3E5 0.4 ug/ml; UBE3A 0.00640 ng/ml
[7] = target: recombinant UBE3A protein (Homo sapiens (Human)) (UniProt Q05086); assay: Simoa; capture GTX; 3E5 0.2 ug/ml; UBE3A 4.00 ng/ml
[8] = target: recombinant UBE3A protein (Homo sapiens (Human)) (UniProt Q05086); assay: Simoa; capture GTX + helper beads; 3E5 0.4 ug/ml; UBE3A 0.800 ng/ml
[9] = target: recombinant UBE3A protein (Homo sapiens (Human)) (UniProt Q05086); assay: Simoa; capture GTX; 3E5 0.2 ug/ml; UBE3A 20.0 ng/ml
[10] = target: recombinant UBE3A protein (Homo sapiens (Human)) (UniProt Q05086); assay: Simoa; capture GTX + helper beads; 3E5 0.4 ug/ml; UBE3A 0.00128 ng/ml
[11] = target: recombinant UBE3A protein (Homo sapiens (Human)) (UniProt Q05086); assay: Simoa; capture GTX; 3E5 0.4 ug/ml; UBE3A 0.0320 ng/ml
[12] = target: recombinant UBE3A protein (Homo sapiens (Human)) (UniProt Q05086); assay: Simoa head-to-head, Table 11; capture MS 2F6; UBE3A 0.80 ng/ml
[13] = target: recombinant UBE3A protein (Homo sapiens (Human)) (UniProt Q05086); assay: Simoa; capture GTX; SBG 75 pm; UBE3A 0.0320 ng/ml
[14] = target: recombinant UBE3A protein (Homo sapiens (Human)) (UniProt Q05086); assay: Simoa head-to-head, Table 10; capture MS 2F6; UBE3A 20.0 ng/ml
[15] = target: recombinant UBE3A protein (Homo sapiens (Human)) (UniProt Q05086); assay: Simoa; capture GTX + helper beads; 3E5 0.1 ug/ml; UBE3A 20.0 ng/ml
[16] = target: recombinant UBE3A protein (Homo sapiens (Human)) (UniProt Q05086); assay: Simoa; capture GTX; SBG 100 pm; UBE3A 4.00 ng/ml
[17] = target: recombinant UBE3A protein (Homo sapiens (Human)) (UniProt Q05086); assay: Simoa head-to-head, Table 11; capture MS 2F6; UBE3A 4.00 ng/ml
[18] = target: recombinant UBE3A protein (Homo sapiens (Human)) (UniProt Q05086); assay: Simoa head-to-head, Table 10; capture MS 2F6; UBE3A 0.16 ng/ml
[19] = target: recombinant UBE3A protein (Homo sapiens (Human)) (UniProt Q05086); assay: 3-step Simoa, 120 min bead step; capture GTX; UBE3A 0.0320 ng/ml
[20] = target: recombinant UBE3A protein (Homo sapiens (Human)) (UniProt Q05086); assay: Simoa; capture GTX, no helper beads; 3E5 0.2 ug/ml; UBE3A 4.00 ng/ml

Chain of UniProt Q05086 (Q05086 whole entry): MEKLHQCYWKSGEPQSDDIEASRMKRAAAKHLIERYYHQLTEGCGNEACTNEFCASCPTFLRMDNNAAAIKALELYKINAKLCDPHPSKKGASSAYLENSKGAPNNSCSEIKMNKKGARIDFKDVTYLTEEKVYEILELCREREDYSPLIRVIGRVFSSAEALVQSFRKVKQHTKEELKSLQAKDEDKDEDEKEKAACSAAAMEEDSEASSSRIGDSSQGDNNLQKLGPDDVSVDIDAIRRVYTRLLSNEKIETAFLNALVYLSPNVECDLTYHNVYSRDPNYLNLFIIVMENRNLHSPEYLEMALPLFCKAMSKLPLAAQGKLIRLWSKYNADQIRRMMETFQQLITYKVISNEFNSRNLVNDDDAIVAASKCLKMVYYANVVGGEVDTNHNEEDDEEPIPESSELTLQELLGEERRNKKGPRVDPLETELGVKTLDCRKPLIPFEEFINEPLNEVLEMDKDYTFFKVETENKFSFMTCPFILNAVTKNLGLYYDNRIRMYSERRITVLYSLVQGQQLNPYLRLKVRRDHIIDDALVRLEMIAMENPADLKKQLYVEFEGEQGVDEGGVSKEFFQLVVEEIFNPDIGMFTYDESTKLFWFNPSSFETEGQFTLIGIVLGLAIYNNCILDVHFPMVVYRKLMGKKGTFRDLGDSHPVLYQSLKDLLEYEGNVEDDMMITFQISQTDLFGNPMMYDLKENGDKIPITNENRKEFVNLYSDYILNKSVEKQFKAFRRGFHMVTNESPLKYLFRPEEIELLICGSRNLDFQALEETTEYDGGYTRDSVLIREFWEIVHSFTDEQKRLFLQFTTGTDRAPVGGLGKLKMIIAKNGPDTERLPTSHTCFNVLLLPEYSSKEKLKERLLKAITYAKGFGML

In the case of NB500-240 (Novus) (antibody), the AEB1 [1] is reported as 0.122, the AEB2 [1] is reported as 0.122 and the Ave AEB [1] is reported as 0.122. For the same substance, the Signal to Background [1] was 55.8, the AEB1 [2] was 0.141 and the AEB2 [2] was 0.126. The Ave AEB [2] was 0.134 and the Signal to Background [2] was 40.8.

In the case of “anti-UBE3A antibody 3E5 (SAB1404508-100 ug, Millipore-Sigma)”, the AEB1 [3] is reported as 0.0582, the AEB2 [3] is reported as 0.0586 and the AEB3 [3] is reported as 0.0574. The Average AEB [3] was 0.0581, the Signal to Background [3] was 6.93 and the AEB1 [4] was 0.114. The AEB2 [4] was 0.127, the AEB3 [4] was 0.117 and the Average AEB [4] was 0.12. It also gave a Signal to Background [4] of 0.976, an AEB1 [5] of 0.078 and an AEB2 [5] of 0.115. The AEB3 [5] was 0.126, the Average AEB [5] was 0.106 and the Signal to Background [5] was 24.3. For the same substance, the AEB1 [6] was 0.0326, the AEB2 [6] was 0.0263 and the Average AEB [6] was 0.0294. The Signal to Background [6] was 1.51, the AEB1 [7] was 1.18 and the AEB2 [7] was 2.32. The AEB3 [7] was 1.18, the Average AEB [7] was 1.56 and the Signal to Background [7] was 39.7. The AEB1 [8] was 0.341, the AEB2 [8] was 0.333 and the Average AEB [8] was 0.337. It also gave a Signal to Background [8] of 17.2, an AEB1 [9] of 6.38 and an AEB2 [9] of 6.95. It also gave an AEB3 [9] of 6.77, an Average AEB [9] of 6.7 and a Signal to Background [9] of 171. For the same substance, the AEB1 [10] was 0.0222, the AEB2 [10] was 0.0178 and the Average AEB [10] was 0.02. For the same substance, the Signal to Background [10] was 1.02, the AEB1 [11] was 0.0958 and the AEB2 [11] was 0.0924. The AEB3 [11] was 0.095, the Average AEB [11] was 0.0944 and the Signal to Background [11] was 1.51. It also gave an AEB1 [12] of 0.0183, an AEB2 [12] of 0.0197 and an Ave AEB [12] of 0.019. For the same substance, the Signal to Background [12] was 5.03, the AEB1 [13] was 0.0091 and the AEB2 [13] was 0.0117. For the same substance, the AEB3 [13] was 0.0116, the Average AEB [13] was 0.0108 and the Signal to Background [13] was 2.47. The AEB1 [14] was 0.514, the AEB2 [14] was 0.552 and the Ave AEB [14] was 0.533. For the same substance, the Signal to Background [14] was 39.4, the AEB1 [15] was 3.37 and the AEB2 [15] was 3.48. It also gave an Average AEB [15] of 3.42, a Signal to Background [15] of 597 and an AEB1 [16] of 0.739. It also gave an AEB2 [16] of 0.78, an AEB3 [16] of 0.707 and an Average AEB [16] of 0.742. The Signal to Background [16] was 88.5, the AEB1 [17] was 0.0868 and the AEB2 [17] was 0.0803. It also gave an Ave AEB [17] of 0.0836, a Signal to Background [17] of 22.1 and an AEB1 [18] of 0.0183. For the same substance, the AEB2 [18] was 0.0155, the Ave AEB [18] was 0.0169 and the Signal to Background [18] was 1.25. For the same substance, the AEB1 [19] was 0.0115, the AEB2 [19] was 0.0095 and the Ave AEB [19] was 0.0105. The Signal to Background [19] was 6.15, the AEB1 [20] was 0.878 and the AEB2 [20] was 0.851. It also gave an Average AEB [20] of 0.864 and a Signal to Background [20] of 89.4.

Source: US12467929
